Results published in the RNAGym collection of RNA variant scans (doi:10.7554/elife.80360).

B1: CPEB3 Ribozyme (parent)
chain: GGGGGCCACAGCAGAAGCGUUCACGUCGCGGCCCCUGUCAGAUUCUGGUGAAUCUGCGAAUUCUGCUGU

Variants of: B1
Assay: self-cleavage, relative activity (ratio to wild type); higher = more cleavage; co-transcriptional

Point of comparison: GGGGGCCACAGCAGAAGCGUUCACGUCGCGGCCCAUGUCAGAUUCUGGUGAAUCUGCGAGUUCUGCUGU [C35A A60G], self-cleavage 0.24. Against it:
- GGGGGCCACAGCAGAAGCGUUCACGUCGCGGCCUCUGUCAGAUUCUGGUGAAUCAGCGAAUUCUGCUGU [C34U U55A] — higher, 0.925
- GGGGGCCACAGCAGAAGCGUUCACGUCGCGGCCUCUGUCAGAUUCUGGUGAAUCGGCGAAUUCUGCUGU [C34U U55G] — higher, 0.84
- GGGGGCCACAGCAGAAGCGUUCACGUCGCGGCCCAUGUCAGGUUCUGGUGAAUCUGCGAAUUCUGCUGU [C35A A42G] — higher, 0.281
- GGGGGCCACAGCAGAAGCGUUCACGUCGCGGCCCAUGUCAGCUUCUGGUGAAUCUGCGAAUUCUGCUGU [C35A A42C] — lower, 0.229
- GGGGGCCACAGCAGAAGCGUUCACGUCGCGGCCCAUGUCAGUUUCUGGUGAAUCUGCGAAUUCUGCUGU [C35A A42U] — lower, 0.19
- GGGGGCCACAGCAGAAGCGUUCACGUCGCGGCCUCUGUCAGAUUCUGGUGAAUCUGCGAAUUCUGCGGU [C34U U67G] — higher, 0.982
- GGGGGCCACAGCAGAAGCGUUCACGUCGCGGCCUCUGUCAGAUUCUGGUGAAUCUGCGAAAUCUGCUGU [C34U U61A] — higher, 0.952
- GGGGGCCACAGCAGAAGCGUUCACGUCGCGGCCUCUGUCAGAUUCUGGUGAAUCUGCGAAGUCUGCUGU [C34U U61G] — higher, 0.711
- GGGGGCCACAGCAGAAGCGUUCACGUCGCGGCCCAUGUCAGAUUCUGGUGAGUCUGCGAAUUCUGCUGU [C35A A52G] — higher, 0.247
- GGGGGCCACAGCAGAAGCGUUCACGUCGCGGCCCAUGUCAGAUUCUGGUGACUCUGCGAAUUCUGCUGU [C35A A52C] — higher, 0.316
- GGGGGCCACAGCAGAAGCGUUCACGUCGCGGCCCAUGUCAGAUUCUGGUGAAUCUGUGAAUUCUGCUGU [C35A C57U] — lower, 0.191
- GGGGGCCACAGCAGAAGCGUUCACGUCGCGGCCCAUGUUAGAUUCUGGUGAAUCUGCGAAUUCUGCUGU [C35A C39U] — lower, 0.183
- GGGGGCCACAGCAGAAGCGUUCACGUCGCGGCCCAUGUGAGAUUCUGGUGAAUCUGCGAAUUCUGCUGU [C35A C39G] — higher, 0.3
- GGGGGCCACAGCAGAAGCGUUCACGUCGCGGCCCAUUUCAGAUUCUGGUGAAUCUGCGAAUUCUGCUGU [C35A G37U] — lower, 0.237
- GGGGGCCACAGCAGAAGCGUUCACGUCGCGGCCCAUAUCAGAUUCUGGUGAAUCUGCGAAUUCUGCUGU [C35A G37A] — lower, 0.221
- GGGGGCCACAGCAGAAGCGUUCACGUCGCGGCCCAUCUCAGAUUCUGGUGAAUCUGCGAAUUCUGCUGU [C35A G37C] — higher, 0.254
- GGGGGCCACAGCAGAAGCGUUCACGUCGCGGCCCAUGUCAGAUUCUGGUGAAUCUGCGACUUCUGCUGU [C35A A60C] — lower, 0.193
- GGGGGCCACAGCAGAAGCGUUCACGUCGCGGCCUCUGUCAGAUUCUGGUGAACCUGCGAAUUCUGCUGU [C34U U53C] — higher, 0.943
- GGGGGCCACAGCAGAAGCGUUCACGUCGCGGCCUCUGUCAGAUUCUGGUGAAGCUGCGAAUUCUGCUGU [C34U U53G] — higher, 0.728
- GGGGGCCACAGCAGAAGCGUUCACGUCGCGGCCUCUGUCAGAUUCUGGUGAAUCUGCGAAUGCUGCUGU [C34U U62G] — higher, 0.892
- GGGGGCCACAGCAGAAGCGUUCACGUCGCGGCCUCUGUCAGAUUCUGGUGAAUCUGCGAAUACUGCUGU [C34U U62A] — higher, 0.921
- GGGGGCCACAGCAGAAGCGUUCACGUCGCGGCCCAUGUCAGAUUCUGGUGAAUUUGCGAAUUCUGCUGU [C35A C54U] — higher, 0.252
- GGGGGCCACAGCAGAAGCGUUCACGUCGCGGCCCAUGUCAGAUUCUGGUGAAUAUGCGAAUUCUGCUGU [C35A C54A] — higher, 0.315
- GGGGGCCACAGCAGAAGCGUUCACGUCGCGGCCCAUGUCAAAUUCUGGUGAAUCUGCGAAUUCUGCUGU [C35A G41A] — higher, 0.264
- GGGGGCCACAGCAGAAGCGUUCACGUCGCGGCCCAUGUCAGAUUCUGGUGCAUCUGCGAAUUCUGCUGU [C35A A51C] — higher, 0.255
- GGGGGCCACAGCAGAAGCGUUCACGUCGCGGCCCAUGUCAGAUUCUGGUGGAUCUGCGAAUUCUGCUGU [C35A A51G] — lower, 0.234
- GGGGGCCACAGCAGAAGCGUUCACGUCGCGGCCCAUGUCAGAUUCUGGUGAAUCUGCGGAUUCUGCUGU [C35A A59G] — higher, 0.34
- GGGGGCCACAGCAGAAGCGUUCACGUCGCGGCCCAUGUCAGAUUCUGGUGAAUCUGCGCAUUCUGCUGU [C35A A59C] — lower, 0.204
- GGGGGCCACAGCAGAAGCGUUCACGUCGCGGCCCAUGUCAGAUUCUGGUGAAUCUGCGUAUUCUGCUGU [C35A A59U] — lower, 0.227
- GGGGGCCACAGCAGAAGCGUUCACGUCGCGGCCUCUGUCAGAUUCUGGUGAAUCUGCGAAUUCCGCUGU [C34U U64C] — higher, 0.971
- GGGGGCCACAGCAGAAGCGUUCACGUCGCGGCCUCUGUCAGAUUCUGGUGAAUCUGCGAAUUCGGCUGU [C34U U64G] — higher, 0.928
- GGGGGCCACAGCAGAAGCGUUCACGUCGCGGCCCAUGUCAGAUUCUGGUGAAUCUGCGAAUUAUGCUGU [C35A C63A] — higher, 0.276
- GGGGGCCACAGCAGAAGCGUUCACGUCGCGGCCCAUGUCAGAUUCUGGUGAAUCUGCGAAUUCUGAUGU [C35A C66A] — lower, 0.22
- GGGGGCCACAGCAGAAGCGUUCACGUCGCGGCCCAUGUCAGAUUCUGGUGAAUCUGCGAAUUCUGGUGU [C35A C66G] — higher, 0.294
- GGGGGCCACAGCAGAAGCGUUCACGUCGCGGCCCAUGUCAGAUUCUGGUGAAUCUGCGAAUUCUGUUGU [C35A C66U] — higher, 0.259
- GGGGGCCACAGCAGAAGCGUUCACGUCGCGGCCUCUGUCAGAUUCUGGUGAAUCUGCGAAUUCUGCUGC [C34U U69C] — higher, 1.07
- GGGGGCCACAGCAGAAGCGUUCACGUCGCGGCCUCUGUCAGAUUCUGGUGAAUCUGCGAAUUCUGCUGG [C34U U69G] — higher, 1.04
- GGGGGCCACAGCAGAAGCGUUCACGUCGCGGCCUCUGUCAGAUUCUGGUGAAUCUGCGAAUUCUGCUGA [C34U U69A] — higher, 1.01
